Measured values published in article PMC10085679, “Filament assembly underpins the double-stranded DNA specificity of AIM2-like receptors”.

Columns and labels:
IFI16FL [1] = target: T1, IFI16FL (Homo sapiens, UniProt Q16666-2 1-729); test: competition; last row of Table S10, presumably against 60-bp FAM-dsDNA; 160 mM KCl; 60 mM KCl for IFI16HinAB; FAM probe 3-6 nM (FA) or 20 nM (EMSA); binding buffer pH and temperature not in the material; details: protein: recombinant; tags: C-terminal His6
AIM2FL [2] = target: T2, AIM2FL (Homo sapiens, UniProt O14862 1-343); test: competition fluorescence anisotropy; unlabelled competitor against 6 nM 24-bp FAM-dsDNA, 100 nM protein; 160 mM KCl (60 mM KCl for IFI16HinAB); buffer, pH and temperature not given in the available text; details: protein: recombinant
T2 sequence: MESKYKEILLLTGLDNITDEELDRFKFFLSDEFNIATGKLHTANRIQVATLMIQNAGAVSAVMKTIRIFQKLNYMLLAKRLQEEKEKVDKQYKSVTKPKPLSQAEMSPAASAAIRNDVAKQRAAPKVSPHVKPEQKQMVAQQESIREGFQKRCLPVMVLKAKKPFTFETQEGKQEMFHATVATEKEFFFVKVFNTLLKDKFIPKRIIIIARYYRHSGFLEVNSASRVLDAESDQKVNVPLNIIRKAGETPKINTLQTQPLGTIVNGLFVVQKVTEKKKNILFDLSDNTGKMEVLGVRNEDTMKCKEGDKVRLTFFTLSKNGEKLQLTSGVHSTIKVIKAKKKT

IFI16HinAB [3] = target: T3, IFI16HinAB (Homo sapiens, UniProt Q16666-2 159-729); test: fluorescence anisotropy; 160 mM KCl (60 mM KCl for IFI16HinAB); buffer, pH and temperature not given in the available text; details: protein: recombinant
AIM2HIN [4] = target: T4, AIM2HIN (Homo sapiens, UniProt O14862 144-343); test: as above; details: protein: recombinant
T4 sequence: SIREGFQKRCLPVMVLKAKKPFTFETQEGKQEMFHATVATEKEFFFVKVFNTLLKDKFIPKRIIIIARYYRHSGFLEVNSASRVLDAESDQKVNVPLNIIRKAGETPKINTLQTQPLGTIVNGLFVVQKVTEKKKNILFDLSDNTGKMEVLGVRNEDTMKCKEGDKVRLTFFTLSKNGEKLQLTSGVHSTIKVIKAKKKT

IFI16FL [5] = target: T1, IFI16FL; test: as above; details: protein: recombinant; tags: C-terminal His6
AIM2FL [6] = target: T2, AIM2FL; test: as above; details: protein: recombinant
IFI16HinAB [7] = target: T3, IFI16HinAB; test: competition fluorescence anisotropy; unlabelled competitor against 6 nM 24-bp FAM-dsDNA, 1000 nM protein; 160 mM KCl (60 mM KCl for IFI16HinAB); buffer, pH and temperature not given in the available text; details: protein: recombinant
AIM2FL [8] = target: T2, AIM2FL; test: fluorescence anisotropy; 160 mM KCl; 60 mM KCl for IFI16HinAB; FAM probe 3-6 nM (FA) or 20 nM (EMSA); binding buffer pH and temperature not in the material; details: protein: recombinant
IFI16FL [9] = target: T1, IFI16FL; test: competition fluorescence anisotropy; unlabelled competitor against 6 nM 24-bp FAM-dsDNA, 500 nM protein; 160 mM KCl (60 mM KCl for IFI16HinAB); buffer, pH and temperature not given in the available text; details: protein: recombinant; tags: C-terminal His6
AIM2HIN [10] = target: T4, AIM2HIN; test: competition fluorescence anisotropy; unlabelled competitor against 6 nM 24-bp FAM-dsDNA, 625 nM protein; 160 mM KCl (60 mM KCl for IFI16HinAB); buffer, pH and temperature not given in the available text; details: protein: recombinant
IFI16HinAB [11] = target: T3, IFI16HinAB; test: competition fluorescence anisotropy; unlabelled competitor against 6 nM 60-bp FAM-dsDNA, 400 nM protein; 160 mM KCl (60 mM KCl for IFI16HinAB); buffer, pH and temperature not given in the available text; details: protein: recombinant
AIM2HIN [12] = target: T4, AIM2HIN; test: as above; details: protein: recombinant

T3 sequence (Q16666 other isoform, or with tags, fused parts or gaps): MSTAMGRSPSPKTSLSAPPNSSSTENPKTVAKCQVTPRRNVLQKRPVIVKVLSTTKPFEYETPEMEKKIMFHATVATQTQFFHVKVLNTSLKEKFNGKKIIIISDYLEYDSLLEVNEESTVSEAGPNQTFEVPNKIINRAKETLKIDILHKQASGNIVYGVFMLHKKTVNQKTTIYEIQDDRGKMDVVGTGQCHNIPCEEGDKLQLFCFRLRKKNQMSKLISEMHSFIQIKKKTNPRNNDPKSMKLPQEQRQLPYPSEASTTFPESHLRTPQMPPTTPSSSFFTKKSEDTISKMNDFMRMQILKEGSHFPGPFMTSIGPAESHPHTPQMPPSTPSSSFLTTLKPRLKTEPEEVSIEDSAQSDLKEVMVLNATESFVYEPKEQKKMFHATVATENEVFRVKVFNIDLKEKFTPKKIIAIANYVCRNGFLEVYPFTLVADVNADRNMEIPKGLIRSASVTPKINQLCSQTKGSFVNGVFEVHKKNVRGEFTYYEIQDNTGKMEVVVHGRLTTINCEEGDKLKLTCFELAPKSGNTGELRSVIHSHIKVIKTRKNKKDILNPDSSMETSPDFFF
T1 sequence (Q16666 other isoform, or with tags, fused parts or gaps): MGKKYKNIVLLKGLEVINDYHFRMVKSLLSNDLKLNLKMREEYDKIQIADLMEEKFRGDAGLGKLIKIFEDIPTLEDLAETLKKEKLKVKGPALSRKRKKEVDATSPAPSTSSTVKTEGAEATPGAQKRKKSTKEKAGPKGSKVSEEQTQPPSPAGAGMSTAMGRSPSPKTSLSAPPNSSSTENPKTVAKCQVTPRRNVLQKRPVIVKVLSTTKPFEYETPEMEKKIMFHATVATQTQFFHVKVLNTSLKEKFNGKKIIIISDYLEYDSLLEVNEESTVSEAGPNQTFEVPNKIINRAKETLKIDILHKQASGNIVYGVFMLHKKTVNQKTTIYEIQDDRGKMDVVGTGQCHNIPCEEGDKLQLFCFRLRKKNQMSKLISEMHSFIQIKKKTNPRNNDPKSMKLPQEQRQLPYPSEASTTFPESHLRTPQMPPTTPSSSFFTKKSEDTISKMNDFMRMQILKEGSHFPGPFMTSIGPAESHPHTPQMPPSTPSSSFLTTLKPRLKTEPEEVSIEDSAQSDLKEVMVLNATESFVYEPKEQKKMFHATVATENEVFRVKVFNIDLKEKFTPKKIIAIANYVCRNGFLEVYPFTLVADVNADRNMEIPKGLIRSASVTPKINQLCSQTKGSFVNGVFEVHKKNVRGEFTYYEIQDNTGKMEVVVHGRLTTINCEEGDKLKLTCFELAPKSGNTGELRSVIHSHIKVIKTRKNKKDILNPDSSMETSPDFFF

B1: 60-bp DNA:RNA hybrid (DNA:RNA)
DNA: TAAGACACGATGCGATAAAATCTGTTTGTAAAATTTATTAAGGGTACAAATTGCCCTAGC
RNA: GCUAGGGCAAUUUGUACCCUUAAUAAAUUUUACAAACAGAUUUUAUCGCAUCGUGUCUUA
IC50 (IFI16FL [1]): 975 ± 48.1 nM | IC50 (AIM2FL [2]): 19.6 ± 0.44 nM | Kd (IFI16HinAB [3]): 60 ± 10 nM | Kd (AIM2HIN [4]): 800 ± 100 nM | Kd (IFI16FL [5]): 35 ± 15 nM | Kd (AIM2FL [6]): 40 ± 10 nM | IC50 (IFI16HinAB [7]): 663 ± 64.6 nM | Kd (AIM2FL [8]): 40 ± 10 nM | IC50 (IFI16FL [9]): 239 ± 31.9 nM | IC50 (AIM2HIN [10]): 100 ± 9 nM | IC50 (IFI16HinAB [11]): 623 ± 106 nM | IC50 (AIM2HIN [12]): 350 ± 44 nM
